Assay results as given in the Immune Epitope Database (IEDB).

Experiments:
[1] = biological target: HLA-B*51:01; assay: IEDB peptide-MHC binding, purified MHC/competitive/radioactivity; filed as Kd, often an IC50 or EC50 that approximates it; ≥ and ≤ were set here for values at or beyond the usual limits of such assays
[2] = biological target: HLA-B*08:01; assay: IEDB peptide-MHC binding, purified MHC/direct/fluorescence; filed as Kd, often an IC50 or EC50 that approximates it; ≥ and ≤ were set here for values at or beyond the usual limits of such assays
[3] = biological target: HLA-A*03:01; assay: as above
[4] = biological target: HLA-A*11:01; assay: as above
[5] = biological target: HLA-A*26:01; assay: as above
[6] = biological target: HLA-B*58:01; assay: as above
[7] = biological target: HLA-A*02:01; assay: as above
[8] = biological target: HLA-A*24:03; assay: as above
[9] = biological target: HLA-A*69:01; assay: as above
[10] = biological target: HLA-A*01:01; assay: as above
[11] = biological target: HLA-B*44:02; assay: as above
[12] = biological target: HLA-B*07:02; assay: as above
[13] = biological target: HLA-B*15:01; assay: as above
[14] = biological target: HLA-B*40:01; assay: as above
[15] = biological target: HLA-B*27:05; assay: as above
[16] = biological target: HLA-B*07:02; assay: IEDB peptide-MHC binding, purified MHC/competitive/radioactivity; filed as Kd, often an IC50 or EC50 that approximates it; ≥ and ≤ were set here for values at or beyond the usual limits of such assays
[17] = biological target: HLA-A*31:01; assay: IEDB peptide-MHC binding, purified MHC/direct/fluorescence; filed as Kd, often an IC50 or EC50 that approximates it; ≥ and ≤ were set here for values at or beyond the usual limits of such assays
[18] = biological target: HLA-B*53:01; assay: IEDB peptide-MHC binding, purified MHC/competitive/radioactivity; filed as Kd, often an IC50 or EC50 that approximates it; ≥ and ≤ were set here for values at or beyond the usual limits of such assays
[19] = biological target: HLA-A*24:02; assay: IEDB peptide-MHC binding, purified MHC/competitive/fluorescence; ≥ and ≤ were set here for values at or beyond the usual limits of such assays
[20] = biological target: HLA-B*35:01; assay: IEDB peptide-MHC binding, purified MHC/competitive/radioactivity; filed as Kd, often an IC50 or EC50 that approximates it; ≥ and ≤ were set here for values at or beyond the usual limits of such assays
[21] = biological target: HLA-A*02:12; assay: IEDB peptide-MHC binding, purified MHC/direct/fluorescence; filed as Kd, often an IC50 or EC50 that approximates it; ≥ and ≤ were set here for values at or beyond the usual limits of such assays; conditions: source organism: Mycobacterium tuberculosis str. Haarlem
[22] = biological target: HLA-A*02:01; assay: IEDB peptide-MHC binding, purified MHC/competitive/fluorescence; ≥ and ≤ were set here for values at or beyond the usual limits of such assays
[23] = biological target: HLA-B*39:01; assay: IEDB peptide-MHC binding, purified MHC/competitive/fluorescence; filed as Kd, often an IC50 or EC50 that approximates it; ≥ and ≤ were set here for values at or beyond the usual limits of such assays
[24] = biological target: HLA-A*69:01; assay: as above
[25] = biological target: HLA-B*15:17; assay: as above
[26] = biological target: HLA-B*18:01; assay: IEDB peptide-MHC binding, purified MHC/direct/fluorescence; filed as Kd, often an IC50 or EC50 that approximates it; ≥ and ≤ were set here for values at or beyond the usual limits of such assays
[27] = biological target: HLA-B*57:01; assay: IEDB peptide-MHC binding, purified MHC/competitive/fluorescence; filed as Kd, often an IC50 or EC50 that approximates it; ≥ and ≤ were set here for values at or beyond the usual limits of such assays; conditions: source organism: Zaire ebolavirus
[28] = biological target: HLA-B*51:01; assay: as above; conditions: source organism: Zaire ebolavirus
[29] = biological target: HLA-B*18:01; assay: as above
[30] = biological target: HLA-B*27:03; assay: as above
[31] = biological target: HLA-B*46:01; assay: as above; conditions: source organism: Zaire ebolavirus
[32] = biological target: HLA-B*15:01; assay: as above; conditions: source organism: Zaire ebolavirus
[33] = biological target: HLA-A*02:01; assay: as above; conditions: source organism: Homo sapiens
[34] = source organism: Dengue virus 1 Brazil/97-11/1997
[35] = source organism: Coxiella burnetii
[36] = source organism: Dengue virus 2 Jamaica/1409/1983
[37] = source organism: Pseudomonas viridiflava
[38] = source organism: Dengue virus 4 Philippines/H241/1956
[39] = source organism: Vibrio parahaemolyticus
[40] = source organism: Zaire ebolavirus
[41] = source organism: Dengue virus 3 Sri Lanka/1266/2000
[42] = source organism: Sudan ebolavirus
[43] = source organism: Giardia lamblia ATCC 50803
[44] = source organism: Orthohantavirus hantanense
[45] = source organism: Salmonella enterica subsp. enterica serovar Typhi
[46] = source organism: Dengue virus 3 Martinique/1243/1999
[47] = source organism: Brucella abortus
[48] = source organism: Vaccinia virus WR

## DPRRCLKPVI
[1]; [34]
  Kd: 10.5 µM

## YYYNFSEDL
[2]; [35]
  Kd: ≥ 20 µM
[3]; [35]
  Kd: ≥ 20 µM
[4]; [35]
  Kd: ≥ 20 µM
[5]; [35]
  Kd: ≥ 20 µM
[6]; [35]
  Kd: ≥ 20 µM
[7]; [35]
  Kd: ≥ 20 µM
[8]; [35]
  Kd: 0.00105 µM
[9]; [35]
  Kd: ≥ 20 µM
[10]; [35]
  Kd: ≥ 20 µM
[11]; [35]
  Kd: ≥ 20 µM
[12]; [35]
  Kd: ≥ 20 µM
[13]; [35]
  Kd: ≥ 20 µM
[14]; [35]
  Kd: ≥ 20 µM
[15]; [35]
  Kd: ≥ 20 µM

## RPGYHTQTA
[16]; [36]
  Kd: 0.00961 µM

## MSRRRIYVL
[2]; source organism: Cowpox virus
  Kd: 0.006 µM

## DYDQRDYGF
[2]; [37]
  Kd: ≥ 20 µM
[3]; [37]
  Kd: ≥ 20 µM
[4]; [37]
  Kd: ≥ 20 µM
[5]; [37]
  Kd: ≥ 20 µM
[6]; [37]
  Kd: ≥ 20 µM
[7]; [37]
  Kd: ≥ 20 µM
[8]; [37]
  Kd: ≥ 20 µM
[17]; [37]
  Kd: ≥ 20 µM
[9]; [37]
  Kd: ≥ 20 µM
[10]; [37]
  Kd: ≥ 20 µM
[12]; [37]
  Kd: ≥ 20 µM
[13]; [37]
  Kd: ≥ 20 µM
[14]; [37]
  Kd: ≥ 20 µM
[15]; [37]
  Kd: ≥ 20 µM

## PPFGDSYIV
[1]; [38]
  Kd: ≥ 23.1 µM

## MPSVIEKMET
[18]; [36]
  Kd: 1.61 µM
[1]; [36]
  Kd: 9.48 µM

## KGRVGRVNP
[19]; source organism: Variola virus
  IC50: 9.76 µM

## LALMATFKM
[20]; [34]
  Kd: 0.11 µM

## EIPGSPGSY
[2]; [39]
  Kd: ≥ 20 µM
[3]; [39]
  Kd: ≥ 20 µM
[4]; [39]
  Kd: ≥ 20 µM
[5]; [39]
  Kd: 0.105 µM
[6]; [39]
  Kd: ≥ 20 µM
[7]; [39]
  Kd: ≥ 20 µM
[17]; [39]
  Kd: ≥ 20 µM
[9]; [39]
  Kd: ≥ 20 µM
[10]; [39]
  Kd: ≥ 20 µM
[11]; [39]
  Kd: ≥ 20 µM
[12]; [39]
  Kd: ≥ 20 µM
[13]; [39]
  Kd: ≥ 20 µM
[14]; [39]
  Kd: ≥ 20 µM
[15]; [39]
  Kd: ≥ 20 µM

## TYVQLESRF
[19]; [40]
  IC50: 56.4 µM

## WLSQTTLSV
[21]
  Kd: 0.003 µM

## LPAALAFHL
[18]; [41]
  Kd: 0.0107 µM
[1]; [41]
  Kd: 0.828 µM
[16]; [41]
  Kd: 0.0724 µM

## QHSTTLFKI
[19]; [42]
  IC50: 2.12 µM
[22]; [42]
  IC50: ≥ 80 µM

## TPRGTVMDII
[1]; [36]
  Kd: 2.42 µM
[16]; [36]
  Kd: 0.0062 µM

## PYFGPGAEG
[19]; [42]
  IC50: ≥ 114 µM

## GPSPSHKSV
[23]; source organism: Homo sapiens
  Kd: ≥ 20 µM
[24]; source organism: Homo sapiens
  Kd: ≥ 20 µM
[25]; source organism: Homo sapiens
  Kd: ≥ 20 µM

## IHKPRPPAT
[2]; [43]
  Kd: ≥ 20 µM
[3]; [43]
  Kd: ≥ 20 µM
[4]; [43]
  Kd: ≥ 20 µM
[5]; [43]
  Kd: ≥ 20 µM
[6]; [43]
  Kd: ≥ 20 µM
[7]; [43]
  Kd: ≥ 20 µM
[17]; [43]
  Kd: ≥ 20 µM
[9]; [43]
  Kd: ≥ 20 µM
[10]; [43]
  Kd: ≥ 20 µM
[11]; [43]
  Kd: ≥ 20 µM
[12]; [43]
  Kd: ≥ 20 µM
[13]; [43]
  Kd: ≥ 20 µM
[14]; [43]
  Kd: ≥ 20 µM
[15]; [43]
  Kd: ≥ 20 µM

## RELGLDISL
[26]; [44]
  Kd: 0.0027 µM
[11]; [44]
  Kd: 3.28 µM
[14]; [44]
  Kd: 0.0012 µM

## KLINTLFHA
[3]; [40]
  Kd: ≥ 20 µM
[7]; source organism: Sudan ebolavirus - Maleo (1979)
  Kd: 0.0047 µM
[8]; [40]
  Kd: ≥ 20 µM
[27]
  Kd: ≥ 20 µM
[23]; [40]
  Kd: ≥ 20 µM
[28]
  Kd: ≥ 20 µM
[29]; [40]
  Kd: ≥ 20 µM
[24]; [40]
  Kd: ≥ 20 µM
[30]; [40]
  Kd: ≥ 20 µM
[25]; [40]
  Kd: ≥ 20 µM
[31]
  Kd: ≥ 20 µM
[32]
  Kd: ≥ 20 µM

## FLLQLNETI
[19]; [40]
  IC50: 0.862 µM
[22]; [40]
  IC50: 0.33 µM

## WEPPERHIL
[26]; [43]
  Kd: ≤ 0.001 µM
[14]; [43]
  Kd: ≥ 20 µM

## QPQWIAASII
[1]; [38]
  Kd: 0.719 µM
[16]; [38]
  Kd: 0.291 µM

## SFLLMLCLH
[19]; [40]
  IC50: ≥ 266 µM

## REILFHNTM
[2]; [45]
  Kd: 1.31 µM
[3]; [45]
  Kd: ≥ 20 µM
[4]; [45]
  Kd: ≥ 20 µM
[5]; [45]
  Kd: ≥ 20 µM
[6]; [45]
  Kd: ≥ 20 µM
[7]; [45]
  Kd: ≥ 20 µM
[17]; [45]
  Kd: ≥ 20 µM
[9]; [45]
  Kd: ≥ 20 µM
[10]; [45]
  Kd: ≥ 20 µM
[11]; [45]
  Kd: ≥ 20 µM
[12]; [45]
  Kd: ≥ 20 µM
[13]; [45]
  Kd: 0.18 µM
[14]; [45]
  Kd: 0.00566 µM
[15]; [45]
  Kd: ≥ 20 µM

## LPTYLSSRA
[1]; [38]
  Kd: ≥ 23.7 µM

## VPMSTYGWNI
[18]; [46]
  Kd: 0.0445 µM
[1]; [46]
  Kd: 0.0917 µM
[16]; [46]
  Kd: 0.0605 µM

## VFLPNPAFI
[19]; source organism: Variola virus
  IC50: 18.5 µM
[22]; source organism: Variola virus
  IC50: 0.715 µM

## GVRQFSGWM
[12]; source organism: Homo sapiens
  Kd: 0.0221 µM
[29]; source organism: Homo sapiens
  Kd: ≥ 20 µM
[33]
  Kd: ≥ 20 µM
[30]; source organism: Homo sapiens
  Kd: ≥ 20 µM

## RPTPKGTVMD
[16]; source organism: Dengue virus 3 Singapore/8120/1995
  Kd: 0.061 µM

## AENGWGFYF
[2]; [47]
  Kd: ≥ 20 µM
[3]; [47]
  Kd: ≥ 20 µM
[4]; [47]
  Kd: ≥ 20 µM
[5]; [47]
  Kd: ≥ 20 µM
[6]; [47]
  Kd: ≥ 20 µM
[7]; [47]
  Kd: ≥ 20 µM
[17]; [47]
  Kd: ≥ 20 µM
[9]; [47]
  Kd: ≥ 20 µM
[10]; [47]
  Kd: ≥ 20 µM
[11]; [47]
  Kd: 6.42 µM
[12]; [47]
  Kd: ≥ 20 µM
[13]; source organism: Brucella suis
  Kd: 0.285 µM
[14]; source organism: Brucella suis
  Kd: 0.0289 µM
[15]; [47]
  Kd: ≥ 20 µM

## CLHHAYQGD
[19]; [40]
  IC50: ≥ 92 µM
[22]; [40]
  IC50: ≥ 119 µM

## SPKRLSAAIG
[16]; [34]
  Kd: 0.125 µM

## GGILPWTKI
[19]; [48]
  IC50: ≥ 78.1 µM
[22]; [48]
  IC50: ≥ 125 µM

## RWGGTCHIL
[19]; [40]
  IC50: 0.0556 µM

## KSSFFVWVI
[19]; [42]
  IC50: 0.0694 µM
[22]; [42]
  IC50: 0.274 µM

## WHYDDENPY
[20]; [46]
  Kd: 2.62 µM

## DPSSGYYST
[19]; [40]
  IC50: ≥ 151 µM

## NPWMEDKTPV
[16]; [36]
  Kd: 0.0557 µM

## TPFAEYTNSV
[1]; [38]
  Kd: 0.813 µM
[16]; [38]
  Kd: 0.0729 µM
